# Reference: article PMC7265326
# Target: PKD2-mNeonGreen (PKD2-mNG) in cilia (Chlamydomonas)
# Test: stepwise photobleaching
substance,measurement,value
PKD2-mNeonGreen (PKD2-mNG) in cilia (domain or fragment),photobleaching steps per particle,2.8 steps
same,stoichiometry N,> 3
